Source: patent US20240425606A1, “ANTI-IL-11RA ANTIBODIES” (Lassen Therapeutics 1, Inc., priority 2021, published 2024)
Residue numbers refer to the chain shown, from its start. In names and notes the source's numbering stands.

T1: hIL-11Rα (Homo sapiens, UniProt Q14626)
T1 sequence (Q14626 23-422): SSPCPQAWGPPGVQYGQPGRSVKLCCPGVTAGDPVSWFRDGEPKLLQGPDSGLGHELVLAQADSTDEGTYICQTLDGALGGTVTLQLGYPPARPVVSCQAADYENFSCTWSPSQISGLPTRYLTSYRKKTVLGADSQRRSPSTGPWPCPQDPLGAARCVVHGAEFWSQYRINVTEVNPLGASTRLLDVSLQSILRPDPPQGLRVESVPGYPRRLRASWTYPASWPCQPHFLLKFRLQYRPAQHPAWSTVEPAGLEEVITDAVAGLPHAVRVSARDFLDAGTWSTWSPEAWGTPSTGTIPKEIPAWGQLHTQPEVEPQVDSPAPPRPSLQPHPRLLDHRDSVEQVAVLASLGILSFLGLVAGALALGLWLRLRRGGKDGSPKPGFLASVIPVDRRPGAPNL

B1: mAb6: anti-IL-11Rα antibody; VH SEQ ID NO: 203, VL SEQ ID NO: 204; human IgG4 (S228P), kappa light chain (antibody, V domains shown)
VH: EVQLLESGGGLVQPGGSLRLSCAASGFTFSWYSMTWVRQAPGKGLEWVSSIVPYGDLTQYADSVKGRFTISRDNSKNTLYLQMNSLRAEDTAVYYCAKGPGWGSFDLWGRGTLVTVSS
VL: DIQMTQSPSSLSASVGDRVTITCQASQDINNYLNWYQQKPGKAPKLLIYDASNLQTGVPSRFSGSGSGTDFTFTISSLQPEDIATYYCQQHEFQSPTFGPGTKVDIK
modifications: human IgG4 S228P and kappa constant regions; mAb6 VH Chain; mAb6 VL Chain
notes: anti-IL-11Rα antibody; human IgG4 (S228P), kappa light chain
B2: mAb7: anti-IL-11Rα antibody; VH SEQ ID NO: 205, VL SEQ ID NO: 206; human IgG4 (S228P), kappa light chain (antibody, V domains shown)
VH: B1 VH with W31N, S33A, T35S
VL: B1 VL with F93S
modifications: human IgG4 S228P and kappa constant regions; mAb7 VH Chain; mAb7 VL Chain
notes: as for B1
B3: mAb8: anti-IL-11Rα antibody; VH SEQ ID NO: 207, VL SEQ ID NO: 208; human IgG4 (S228P), kappa light chain (antibody, V domains shown)
VH: B1 VH with W31S, S33A, T35S
VL: B1 VL with F93S
modifications: human IgG4 and kappa constant regions; mAb8 VH Chain; mAb8 VL Chain
notes: as for B1
B4: mAb9: anti-IL-11Rα antibody; VH SEQ ID NO: 209, VL SEQ ID NO: 210; human IgG4 (S228P), kappa light chain (antibody, V domains shown)
VH: B1 VH with S50G
VL: B1 VL with F93S
modifications: human IgG4 and kappa constant regions; mAb9 VH Chain; mAb9 VL Chain
notes: as for B1
B5: mAb12: anti-IL-11Rα antibody; VH SEQ ID NO: 215, VL SEQ ID NO: 216; human IgG4 (S228P), kappa light chain (antibody, V domains shown)
VH: B1 VH with G103Y
VL: B1 VL with F93S
modifications: human IgG4 S228P and kappa constant regions; mAb12 VH Chain; mAb12 VL Chain
notes: as for B1
B6: mAb13: anti-IL-11Rα antibody; VH SEQ ID NO: 217, VL SEQ ID NO: 218; human IgG4 (S228P), kappa light chain (antibody, V domains shown)
VH: B1 VH with G99P, P100E, G101D, S104R
VL: B1 VL with F93S
modifications: human IgG4 S228P and kappa constant regions; mAb13 VH Chain; mAb13 VL Chain
notes: as for B1
B7: mAb14: anti-IL-11Rα antibody; VH SEQ ID NO: 219, VL SEQ ID NO: 220; human IgG4 (S228P), kappa light chain (antibody, V domains shown)
VH: B1 VH with D62E
VL: B1 VL with F93S
modifications: human IgG4 S228P and kappa constant regions; mAb14 VH Chain; mAb14 VL Chain
notes: as for B1
B8: mAb15: anti-IL-11Rα antibody; VH SEQ ID NO: 221, VL SEQ ID NO: 222; human IgG4 (S228P), kappa light chain (antibody, V domains shown)
VH: B1 VH
VL: B1 VL with F93T, S95T
modifications: human IgG4 S228P and kappa constant regions; mAb15 VH Chain; mAb15 VL Chain
notes: as for B1
B9: mAb10: anti-IL-11Rα antibody; VH SEQ ID NO: 211, VL SEQ ID NO: 212; human IgG4 (S228P), kappa light chain (antibody, V domains shown)
VH: B1 VH with P53A
VL: B1 VL with F93S
modifications: human IgG4 S228P and kappa constant regions; mAb10 VH Chain; mAb10 VL Chain
notes: as for B1
B10: mAb11: anti-IL-11Rα antibody; VH SEQ ID NO: 213, VL SEQ ID NO: 214; human IgG4 (S228P), kappa light chain (antibody, V domains shown)
VH: B1 VH with P53D
VL: B1 VL with F93S
modifications: human IgG4 S228P and kappa constant regions; mAb11 VH Chain; mAb11 VL Chain
notes: as for B1

system: IL-11 signaling in STAT3 Reporter (Luciferase)—HEK293 cell line; assay: Cell-based STAT3 reporter (luciferase) assay for inhibiting IL-11 signaling; set-up: species or system human; settings: compared with TS7 and 8E2
Procedure: Further testing of the lead mAbs was carried out using a cell-based reporter assay. IL-11 is reported to signal through the STAT3 and ERK pathways. Therefore, a STAT3 reporter cell line in which firefly luciferase gene expression is driven by STAT3 response elements located upstream of a minimal TATA promoter was selected to analyze mAb functional activity. In these cells, IL-11 can activate the endogenous STAT3 allowing it to bind to the STAT3 response elements, inducing transcription of the luciferase reporter gene and resulting in readily detectable luciferase expression. Antibodies to IL-11R which block IL-11 signaling should inhibit expression of IL-11 driven luciferase in these cells.
The STAT3 Reporter (Luciferase)—HEK293 cell line (BPS Bioscience, catalog #79800-P) was grown, passaged, and assayed as per manufacturer's protocols. Cells were added at 25,000 cells per well in a 96-well microtiter dish and incubated at 37° C. for 30-45 min. in 5% CO2 humidified air. Anti-IL-11R mAbs were added as a 3-fold dilution series in duplicate columns or rows, and plates were returned to the incubator for an additional 1 h at 37° C. after which 40 ng/mL IL-11 was added to each well to initiate the signal transduction cascade and luciferase production. Plates were incubated for 18-24 hours at 37° C. and luciferase was detected using a One-Step Luciferase Assay System (BPS Bioscience, cat. no. 60690-1) as per manufacturer's instructions.

**Q.** B1 was tested. Which “relative potency at inhibiting IL-11 signaling (in words)” value did it give?
**A.** variable

**Q.** Which “relative potency at inhibiting IL-11 signaling (in words)” value does the source give for B2 here?
**A.** less potent than TS7

**Q.** How did the “relative potency at inhibiting IL-11 signaling (in words)” value turn out when B3 was run?
**A.** less potent than TS7

**Q.** With B4 as the molecule, how does the “relative potency at inhibiting IL-11 signaling (in words)” value read?
**A.** more potent at inhibiting IL-11 signaling than either of TS7 or 8E2

**Q.** B5 was tested. Which “relative potency at inhibiting IL-11 signaling (in words)” value did it give?
**A.** comparable in potency to TS7

**Q.** For B6, which “relative potency at inhibiting IL-11 signaling (in words)” value is on record?
**A.** more potent at inhibiting IL-11 signaling than either of TS7 or 8E2

**Q.** For B7, which “relative potency at inhibiting IL-11 signaling (in words)” value is on record?
**A.** comparable in potency to TS7

**Q.** With B8 as the molecule, how does the “relative potency at inhibiting IL-11 signaling (in words)” value read?
**A.** comparable in potency to TS7

**Q.** For B9, which “relative potency at inhibiting IL-11 signaling (in words)” value is on record?
**A.** less potent than TS7

**Q.** With B10 as the molecule, how does the “relative potency at inhibiting IL-11 signaling (in words)” value read?
**A.** less potent than TS7

molecular target: T1, hIL-11Rα; assay: Kinetic binding analysis by biolayer interferometry (protein G biosensors, Octet RED96e); settings: beyond the ability of the instrument to determine an accurate off-rate (kd)
Procedure: Association was carried out in the presence of a 2-fold dilution series of hIL-11Rα and was allowed to proceed for 120 seconds; dissociation was measured for 300 to 1200 seconds.

**Q.** B1 was tested. Which “binding affinity (in words)” value did it give?
**A.** very high binding affinity

**Q.** Which “binding affinity (in words)” value does the source give for B2 here?
**A.** very high binding affinity

**Q.** Which “binding affinity (in words)” value does the source give for B3 here?
**A.** very high binding affinity

**Q.** Which “binding affinity (in words)” value does the source give for B4 here?
**A.** very high binding affinity

**Q.** How did the “binding affinity (in words)” value turn out when B5 was run?
**A.** very high binding affinity

**Q.** For B6, which “binding affinity (in words)” value is on record?
**A.** very high binding affinity

**Q.** Which “binding affinity (in words)” value does the source give for B7 here?
**A.** very high binding affinity

**Q.** How did the “binding affinity (in words)” value turn out when B8 was run?
**A.** very high binding affinity

same assay, conditions: protein G biosensors; association 120 seconds

**Q.** B1 was tested. Which ka did it give?
**A.** 800000 M⁻¹ s⁻¹

**Q.** B2 was tested. Which ka did it give?
**A.** 63500 M⁻¹ s⁻¹

**Q.** Which ka does the source give for B3 here?
**A.** 65100 M⁻¹ s⁻¹

**Q.** How did the ka turn out when B4 was run?
**A.** 62200 M⁻¹ s⁻¹

**Q.** How did the ka turn out when B5 was run?
**A.** 58100 M⁻¹ s⁻¹

**Q.** How did the ka turn out when B6 was run?
**A.** 66700 M⁻¹ s⁻¹

**Q.** With B7 as the molecule, how does the ka read?
**A.** 33700 M⁻¹ s⁻¹

**Q.** B8 was tested. Which ka did it give?
**A.** 84000 M⁻¹ s⁻¹

**Q.** For B9, which ka is on record?
**A.** 840000 M⁻¹ s⁻¹

**Q.** With B10 as the molecule, how does the ka read?
**A.** 32900 M⁻¹ s⁻¹

same assay, conditions: protein G biosensors; dissociation 300 to 1200 seconds

**Q.** With B1 as the molecule, how does the kd read?
**A.** <1e-07 s⁻¹

**Q.** B2 was tested. Which kd did it give?
**A.** <1e-07 s⁻¹

**Q.** B3 was tested. Which kd did it give?
**A.** <1e-07 s⁻¹

**Q.** How did the kd turn out when B4 was run?
**A.** <1e-07 s⁻¹

**Q.** How did the kd turn out when B5 was run?
**A.** <1e-07 s⁻¹

**Q.** For B6, which kd is on record?
**A.** <1e-07 s⁻¹

**Q.** B7 was tested. Which kd did it give?
**A.** <1e-07 s⁻¹

**Q.** For B8, which kd is on record?
**A.** <1e-07 s⁻¹

**Q.** With B9 as the molecule, how does the kd read?
**A.** 0.000416 s⁻¹

**Q.** Which kd does the source give for B10 here?
**A.** 0.0181 s⁻¹
